Laboratory results published in publication PMC9330763.

Target: SAd36 fiber-T4 fibritin-SpT (simian (chimpanzee) adenovirus species E serotype 36 (SAd36) | bacteriophage T4)
Experiment: SDS-PAGE without boiling

Question: With SAd36 fiber-T4 fibritin-SpT as the substance, how does the stoichiometry N read?
Answer: The stoichiometry N was 3.
